Measured values from PMC3958441, “Isl1 and Pou4f2 Form a Complex to Regulate Target Genes in Developing Retinal Ganglion Cells” (PLoS ONE, 2014).

B1: CBRN3(W) (dsDNA)
DNA 1: GATCTCTCCTGCATAATTAATTACCCCCGGAT
DNA 2: GATCCGGGGGTAATTAATTATGCAGGAGAGAT
B2: SBRN3(W) (dsDNA)
DNA 1: GCACACGACCCAATGAATTAATAACCGGGCTG
DNA 2: GCAGCCCGGTTATTAATTCATTGGGTCGTGTG

Key:
Experiment in all cases: EMSA; EMSA: 20 mM Tris-HCl pH 7.5, 50 mM NaCl, 10 mM DTT, 1 mM EDTA, 5% glycerol, 200 ng dI/dC, 200 ng each protein in 20 ul, 4 C, 30 min; 8% PAGE, 1x TBE, 4 C
Details in all cases: protein: recombinant; tags: His (C-terminal); (radiolabel, Klenow fill-in); 5' overhang 1 nt at both ends before fill-in
Pou4f2D4 = biological target: T1, Pou4f2D4 (mouse, UniProt Q63934 169-411)
T1 sequence: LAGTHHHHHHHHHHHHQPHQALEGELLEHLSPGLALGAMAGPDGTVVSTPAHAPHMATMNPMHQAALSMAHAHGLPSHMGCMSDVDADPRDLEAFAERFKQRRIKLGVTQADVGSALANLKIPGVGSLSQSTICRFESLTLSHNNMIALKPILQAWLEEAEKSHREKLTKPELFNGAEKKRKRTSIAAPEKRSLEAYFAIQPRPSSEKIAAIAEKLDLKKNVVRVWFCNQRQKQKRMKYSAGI

Isl1D3 = biological target: T2, Isl1D3 (mouse, UniProt P61372 170-349)
T2 sequence: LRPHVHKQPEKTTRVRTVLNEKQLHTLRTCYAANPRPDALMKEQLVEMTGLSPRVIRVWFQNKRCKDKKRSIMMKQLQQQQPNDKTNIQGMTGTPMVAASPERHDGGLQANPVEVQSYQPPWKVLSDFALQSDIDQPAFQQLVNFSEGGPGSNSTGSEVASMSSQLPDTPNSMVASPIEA

Isl1D4 = biological target: T3, Isl1D4 (mouse, UniProt P61372 146-349)
T3 sequence: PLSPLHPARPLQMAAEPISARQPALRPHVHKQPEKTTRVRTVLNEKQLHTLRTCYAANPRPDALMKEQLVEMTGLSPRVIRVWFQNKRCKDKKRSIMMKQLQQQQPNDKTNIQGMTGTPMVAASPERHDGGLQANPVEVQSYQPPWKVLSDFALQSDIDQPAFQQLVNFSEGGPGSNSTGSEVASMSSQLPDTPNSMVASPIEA

Isl1D1 = biological target: T4, Isl1D1 (mouse, UniProt P61372 1-181)
T4 sequence: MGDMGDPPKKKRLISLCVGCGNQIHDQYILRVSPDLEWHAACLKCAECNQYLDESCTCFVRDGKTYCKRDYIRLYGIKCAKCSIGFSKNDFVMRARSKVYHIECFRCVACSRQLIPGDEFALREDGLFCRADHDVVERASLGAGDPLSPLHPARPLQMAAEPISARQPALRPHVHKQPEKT

Isl1D5 = biological target: T5, Isl1D5 (mouse, UniProt P61372 74-349)
T5 sequence: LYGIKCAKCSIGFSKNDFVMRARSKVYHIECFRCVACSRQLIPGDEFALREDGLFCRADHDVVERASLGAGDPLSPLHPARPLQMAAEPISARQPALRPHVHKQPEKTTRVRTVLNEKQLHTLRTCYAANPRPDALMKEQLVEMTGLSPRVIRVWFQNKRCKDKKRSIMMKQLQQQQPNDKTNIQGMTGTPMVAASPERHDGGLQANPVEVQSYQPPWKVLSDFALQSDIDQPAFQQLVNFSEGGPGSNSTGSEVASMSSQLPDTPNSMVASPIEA

Row | Binder | binding result (Pou4f2D4) | binding result (Isl1D3) | binding result (Isl1D4) | binding result (Isl1D1) | binding result (Isl1D5)
1 | B1 | binds | binds | binds | no binding | binds
2 | B2 | binds | binds | binds | no binding | binds
